The series can be described thus: yeast display, Sf9 membrane polyspecificity reagent, FACS + sequencing; frameworks hold sequencing errors. In outline: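 A synthetic nanobody library was expressed on Saccharomyces cerevisiae BJ5465 by galactose induction for 36–48 hours. The library was stained for 1 hour at 4 °C with 10% biotinylated, detergent-solubilized Sf9 membrane reagent and enriched with streptavidin microbeads before FACS. Low and high (top ~1%) gates were set on anti-HA fluorescence for expression and streptavidin fluorescence for reagent binding, and each polyreactivity label reflects the gate of origin.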
Take “QVQLVESGGGLVQAGGSLRLSCAASGRTFHYYAMGWYRQAPGKERELVAAISVSGGSTYYADSVKGRFTISRDNAKNTVYLQMNSLKPEDTAVYYCAADDYLVEHDYWGQGTQVTVSS”: the “polyreactivity (PSR sort gate)” value was “low polyreactivity”.

For the sequence “QVQLVESGGGLVQAGGSLRLSCAASGRTFYTNAMGWYRQARGKERELVAGISWGDGNTYYADSVKWRFTISRDNAKNTVYLQMNSLKPEDTALYYCAVTYIILWSYSHTEFDYWGQGNQVTVSS”, the “polyreactivity (PSR sort gate)” value is recorded as “low polyreactivity”.

With “QVQLVESGGGLVLAGGSLRLSCAASGITFRNYAMGWYRQAPGKEMEFVATISRRAGSTYYADSVKGRFTISRDNAKNTVYLQMNSLKPEDTAVYYCVTYRNWWYDYWGQGTQVTVSS”, the “polyreactivity (PSR sort gate)” value is given as “high polyreactivity”.

“QVQLVESGGGLVQAGGSLRLTCAASGSTFSKNGMGWYRQAPGKEREFVAAISGSGGSTYYADSVRGRFTISRDNAKNTVYLQMNSLKPEDTAVYYCAARRVWYYISAYGYWGQGTQVTVSS”: the “polyreactivity (PSR sort gate)” value is on record as “high polyreactivity”.

On to “QVQLVESVGGLVQAGGSLRLSCADSGSTFYFNAMGWYRQAPGKEREFVAAIEWSGGSTYYADSVKGRFTISRDNAKNTVYLQMNSLKPEDTAVYYCAAPYHYYGNSVGYADYDYWGQGTQVTVSS”, for which the “polyreactivity (PSR sort gate)” value was “low polyreactivity”.

For “QVQLVESGGGLVQAGGSLRLSCAASGFIFRYYAMGRYRQAPGKERELVAAISYSGGSTYYADSVKGRFTFSRDNAKNTVYLQINSMKPEDTAVYYCAKYTTSVYKQSLQQGYDYWGQGTQVSVSS”, the “polyreactivity (PSR sort gate)” value was “high polyreactivity”.

Consider “QVQLVESGGGLVQAGGSLRLSCDASGRIFHGNAMGWYRQAPGKEREFVAAITYGGGSTYYADSVKGRFTISRDNAKNTVYLQMNSLKPEDTAVYYCNARGARSNGVRGYYSKLNYWGQGTQVTVSS”, for which the “polyreactivity (PSR sort gate)” value is reported as “high polyreactivity”.

Consider “QVQLVESGGGLVQAGGSLRLSCAASGRTFGDYAMGWYRQAPGKERELVAAITIGGSTYYADSVKGRFTISRDNAKNTVYLQMNSLKPEDTAVYYCAATTYSIPSRYDSWGQGTQVNVSS”, for which the “polyreactivity (PSR sort gate)” value is on record as “low polyreactivity”.

In the case of “QVQLVESGGGLVQAGGSRRLSCAASGSTFWYYAMGWYRQAPGKERELVAAIRWSDGSTYYADSVKGRFTISRDNAKNTVYLQMTSLKPEDTAVYYCEYYYWGQGTQVTVSS”, the “polyreactivity (PSR sort gate)” value was “low polyreactivity”.

As to “QVQIVESRGGLVQAGGSLRLSCAASGRILYLYAMGWYRQAPGKERELVARISQRDGSTYYADSVKGRFTISRDNAKNNDYLHMNSLKPEDTAVYYCNAVFSRGSYGYSYDYWGQGTQVTVSS”, the “polyreactivity (PSR sort gate)” value is recorded as “low polyreactivity”.

Turning to “QVQLVESGGGLVQAGGSLRLSCAASGRTFRRNAMGWYRQAPGKERELVAAIRWSSGSTYYADSVKRRFTISRDNAKNTVYLQMNSLKPEDTAVYYCAKRQWGGRESFDYWAQGTQVTVSS”, the “polyreactivity (PSR sort gate)” value is reported as “low polyreactivity”.

“QVQLVESGGGLVQAGGSLRLSCAASGRIFRYYPMGWYRQATGKERELVAAITASGGSTYYADSVKGRFTISRDNAKNTVYLQMNSLKPEDTAVYYCAARVAQVAYPDGYWGQGTQVTVSS”: the “polyreactivity (PSR sort gate)” value is on record as “high polyreactivity”.

Turning to “QVQLVESGGRLVQAGGSHRLSCAASGRTFFHYAMGWYRQSPGKERELVAAITYRGTSTYYADSVKGRFTISRDNAKYTVYIQMNSLKPEDTAVYYCNAYSTRGGWSYRGDSWGQGTQVTVSS”, the “polyreactivity (PSR sort gate)” value is on record as “high polyreactivity”.

Turning to “QVQLVQSRGGLVHAGGSLRFSSAATGITILRYAMGWYIQAPGKERELVAGISWDGGRTYNADSVKGRFTISRDNAKNTVFLQMNSMKPEDTEVYYCADKPSRYRVSLFDYWGHGTQVTVSS”, the “polyreactivity (PSR sort gate)” value was “low polyreactivity”.

Turning to “QVQLVESGGGLVQAGGSLRLSCAASGNTFRRNVMGWYRQAPGKERELVAAINRGGSTTDADSVKGRFTISRDNAKNTVYLQMNSLKPEDTAVYYCNARTLFKWRHGHYYAYDYWGQGTQVTVSS”, the “polyreactivity (PSR sort gate)” value is recorded as “high polyreactivity”.

For “QVQLVESGGGLVQAGGSLRLRSAASGSIIPEYVMGWYRQAPGKERELVAAISWSGGSTYYADSVKGRFTISRDNAKNTDYLQMNSLKPEDTAVYYCNRVPSWRIDYDYWGQGTQVTVSS”, the “polyreactivity (PSR sort gate)” value is on record as “low polyreactivity”.

For “QDQLVESGVGIVQAGGSLRLSCAASGSTFGIYAKGWYRQAPGKETELDAAISSGASTNYADSVKGRFTISRDNEKNTVYLQMNSLKQEDTAVYYCAVESVYEYGGYVDSAYDYWGQGTQVTVSS”, the “polyreactivity (PSR sort gate)” value is listed as “low polyreactivity”.

Turning to “QVHLVESGGGLVQAGGSLRLTCAASGSIFSYAMGWYRQAPGKESELVAAISSGGGRTYYADSVKGRFTISRDNAKNTVYLQMNRLKPEDTAVYFCAAVGLPQGRYGYWGQGTQVTLSS”, the “polyreactivity (PSR sort gate)” value was “high polyreactivity”.

With “QVQLVESGGGLVQAGGSLRLSCAASGFTFGSYAMGWYRQAPGKERELVAAIRQSATRTYYADSVKGRFTISRDNAKNTVYLQMNSLKPEDTAVYYCNVARPGKYFYIYDYWGQGTQVTVSS”, the “polyreactivity (PSR sort gate)” value is on record as “low polyreactivity”.

Take “QVQLVESGGGLVQAGGSLRLSCAASGMTFFTYSMGWYRQAPGKERELVAAISGSGGSTYYADSVKGRFTISRDNAKNTVYLQMNSLKPEDTAVYYCAKRSWIVYDYWGQGTQVTVSS”: the “polyreactivity (PSR sort gate)” value is “low polyreactivity”.

With “QVQLVESGGGLVQAGGRHRLSCAASGFIFHVYAMGWYRQAPGKERELVAAISSGGSTYYADSVKGRFTISRDNAKNTVYLQMNSLKPEDTAVYYCNGARSRYRYRYDYWGQGTQVTVSS”, the “polyreactivity (PSR sort gate)” value is recorded as “high polyreactivity”.

Regarding “QVQLVESGGGLVQAGGSLRLSCAASGLTFWGNTMGWYRQAPGKERELVAAISSGGITYYADSVKGRFTISRDNANNTVYLLMNSLKPEETAVYYCIGVFSFVPHEMDYWGLGTQVTVSS”, the “polyreactivity (PSR sort gate)” value is “high polyreactivity”.

With “QVQLVDSAGGLVQAGGSLRLSCAASGITFGYYAMGWYRQAPGKERELVAAITSSGSTYYADSVKGRFTISRDNAKNTVYLQMNSLNPEDTAVYYCAARSWYSKYYYWGQGTQVTVSS”, the “polyreactivity (PSR sort gate)” value is “high polyreactivity”.

On to “QVQLVESGGGLVQAGGSLRLSCAASGITFPINTMGWYRQAPGKERELVAGIDWTGGSTYYADSVKGRFTISRDNAKIPVYLLMNSLKPEHTAVYYCAKTRRRLLTRYDYWGQGTQVTVSS”, for which the “polyreactivity (PSR sort gate)” value is “low polyreactivity”.

“QVQLVESGGGLVQAGGSLRLSCAASGFTFSYYAMGWYRQAPGKERELVAAITSSGARTYYADSVKGRFTISRDNAKNTVYFQMNSLKPEDTAVYYCAAEVFRTRTWEYYYWGQGTQVTVSS”: the “polyreactivity (PSR sort gate)” value is recorded as “high polyreactivity”.

Turning to “QVQLVESGGGLVQAGGSLRLSCAASGLIFNRNDMGRYRQAPGKETELVAAISGDGGITYYADSVKGRFTISRDNAKNTVYLQMNSLKPEDTAVYYCNAGFTWGDWYDYWGQGTQVTVSS”, the “polyreactivity (PSR sort gate)” value is on record as “low polyreactivity”.

With “QVQLVESGGGLVQAGGSLRLSCAASGSTFLYYTMGWYRQAPGKERELVAAITNGGGSTYYADSVKGRFTISRDNAKNTVYLQMNSLKPEDTAVYYCNAPTVKYRLGYDYWGQGTQVTVSS”, the “polyreactivity (PSR sort gate)” value is given as “high polyreactivity”.

As to “QVQLVESGGGLVQAGGSLRLSCADSGFTFYRNAMGWYRQAPGKERELVAAITSTGSTNYADSVKGRFTISRDNAKNTVYLQMNSLKPEDTAVYYCIKRRFGRQGMDYWGQGTQVTVSS”, the “polyreactivity (PSR sort gate)” value is on record as “low polyreactivity”.

Turning to “QVQLVESGGGLVQAGGSLRLSCAASGSIFPANAMGWYRQAPGKEWEFVAAINWSTGTTYYADSVKGRFTIARDNAKNTVYLQMNRLKPEETPVYYCNASDQAKYDYWGQGTQVTVSS”, the “polyreactivity (PSR sort gate)” value was “low polyreactivity”.

Regarding “QVQLVESGGGLVQAGGSLRLSCAASGITFDYYAMGWYRQAPGKERELVASISSDSSTYYADSVKGRFTISRDNAKNTVYLQMNSLKPEDTAVYYCNAGDSEYTYYGYYAFDYWGQGSQVTVSS”, the “polyreactivity (PSR sort gate)” value was “low polyreactivity”.

Consider “QVQLVESGGGLVQAGGSLRLSCAASGIIFPTYAMGWYRQAPGKERELVAAISVSGGTTSYADSVKGRFTISRDNAKNTVYLQMNSLKPEDTAVYYCAKRPFSTRYDYWGQGTQVTVSS”, for which the “polyreactivity (PSR sort gate)” value is “high polyreactivity”.

Take “QVQLVESGGGLVQAGGSLRLSCAASGYTSYTYTMGWYRQAPGKDRELVAAISRRSDSTYSDSVKGRVTISRDNAKNSVYLQMNSLKPEDTAVYYCAAVRVSYRSLSKSYYWGQGTQVTVSS”: the “polyreactivity (PSR sort gate)” value is on record as “high polyreactivity”.

In the case of “QVQLVESGGGLVQEGGSLRLSCAASGSIFRVNTMGWYRQAPGKERELVATISSGARTNYADSVKGRFTISRDNAKNTVYLQMNSLKPEDTAVYYCAADRSWGYPRWFTSRYDYWGQGTQVTVSS”, the “polyreactivity (PSR sort gate)” value is on record as “high polyreactivity”.

“QVQLVESGGGLVQAGGSLRLSCAASGFTFYFYAMGWYRQAPGKERELVAAITGGTSTYYADSVKGRFTISRDNAKNTVYFQRNSLKPEDTSVYYCAAGYLDVLWLLDLLQLYGYWGQGNQVTVSS”: the “polyreactivity (PSR sort gate)” value was “low polyreactivity”.

Consider “QVQLVESGGGLVQAGGSLRLSSAASGRIFNIYAMGWYRQAPGKERELVARITSGGRTNYADSVKGRFTISRDNAKNTVYLQRNSLKPEDTAVYYCAARTYGQRGDYWGQGTQVTVSS”, for which the “polyreactivity (PSR sort gate)” value is listed as “high polyreactivity”.

Regarding “QVQLVESGGGLVQAGGSLRLSCAASGSIFSYYAMGWYRQAPGKERELVSANTSGDGTNYADSVKGRFTISRDNAKNTVYLQMNILKPDDTAVYYCAADAVDSYWREDYWGQGTQVTVSS”, the “polyreactivity (PSR sort gate)” value is “low polyreactivity”.

For the sequence “QVQLVESGGGLVQAGGSLRLSCAASGLNFGRNAIGWYRQAPGKERELVAAISLSGGRTSYADSVKGRFTISRDNEQNTVYLQMNSVKPEDTAFYFCASRSDVYTHDYWGQGTQVTVSS”, the “polyreactivity (PSR sort gate)” value is on record as “high polyreactivity”.

For the sequence “QVQLVESGGGLVQAGGSLRLSCAASGYIYYYNGMGWYRQAPGKERELVADISRRGGSTYYADSVKGRFTISRDNAKNTESLQMNSLKPEDTAVYYCNARARSAFSYDSWGQGTQVTVSS”, the “polyreactivity (PSR sort gate)” value is reported as “high polyreactivity”.

As to “QVQLVESGGGLVQAGGSLRLSCAASGSIFEINAKGWYRQAPGKERELVADIRRGDSTNYADSVKGRFTISRDNAKNTVYLQMNSLKPEDTAVYYCAAYHRLFDYDYWGQGTQVTVSS”, the “polyreactivity (PSR sort gate)” value was “high polyreactivity”.

As for “QVQMQESGGGLVQAGGSLRLICAASGTISVHASMGWYRQAPGKERELVAGITDGANTYYADSVKGRFTISRDNSKNTVYLQMNSLKPEDTAVYYCAAYYGTEVHFTYWGQGTQVTVSS”, the “polyreactivity (PSR sort gate)” value is listed as “low polyreactivity”.

“QVQLVESGGGLVQAGGSLRLSCAASGNIFFSNAMGWYRQAPGKERELLASISQSGGSTYYADSVKGRFTISRDNAKNTVYLQMNSLKPEDTAVYYCAATQVRRGPAWGRDYWGQGTQVTVSS”: the “polyreactivity (PSR sort gate)” value is reported as “low polyreactivity”.

Values taken from the nanobody polyreactivity screen of Harvey et al. (2022).
